The results in this text go back to US20170081411A1 (published 2017).

Numbering of substitutions follows the chain as printed. Names may count otherwise.

Test [1] addresses T1, His-Avidin-FKBP (wild-type FKBP) (biotinylated (position not given)).
T1 construct: His tag and biotin acceptor tag are part of the entry; also called biotinylated wild-type FKBP; biotinylated FKBP
The test is described as follows: AlphaLISA direct format: 30 nM biotinylated FKBP + 30 nM FLAG-FRB, everolimus titrated 1:3 from 600 nM (EC50 is of the everolimus titration). As to the method: (§1) FRB mutations were also ranked in an alternative assay format. […] All dilutions were made in 1× AlphaLISA Immunoassay buffer (PerkinElmer). Anti-Flag acceptor beads (PerkinElmer) were added at 10 ug/ml final concentration and incubated for one hour at room temperature. Streptavidin donor beads (PerkinElmer), were then added at a final concentration of 40 ug/ml and the plate was protected from light and incubated for 30 minutes at room temperature. The plate was then read on the PerkinElmer EnVision Multiplate reader equipped with the Alpha Module using excitation of 680 nm and a 570 nm Emission filter.

Test [2] has as its target T1, His-Avidin-FKBP (wild-type FKBP). The test is described as follows: AlphaLISA direct format, everolimus titrated, EC50 against wild type FRB. As to the method: as §1

T1 sequence (chain, as listed by the source limits assumed): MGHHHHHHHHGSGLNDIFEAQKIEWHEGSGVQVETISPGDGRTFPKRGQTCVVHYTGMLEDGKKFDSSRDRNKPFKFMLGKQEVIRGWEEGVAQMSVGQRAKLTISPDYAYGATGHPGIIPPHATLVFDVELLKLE

B1: His-FLAG-FRB (wild-type FRB) (other)
chain: MGHHHHHHHHGSDYKDDDDKGSASRILWHEMWHEGLEEASRLYFGERNVKGMFEVLEPLHAMMERGPQTLKETSFNQAYGRDLMEAQEWCRKYMKSGNVKDLTQAWDLYYHVFRRISKTS
notes: His and FLAG tags are part of the entry; also called wild type Flag-FRB
Consider B1, for which the EC50 in test [1] was determined as 3.9 nM.

B2: His-FLAG-FRB E2032I (other)
chain: B1 chain with E37I
notes: The entry already carries the mutation and the tags; also called E2032I (FLAG tagged)
B2: in test [1], the EC50 stood at 2.46 nM.

B3: His-FLAG-FRB T2098L (other)
chain: B1 chain with T103L
notes: The entry already carries the mutation and the tags; also called T2098L (FLAG tagged)
For B3, in test [2], the “fold improved against wild type FRB” value was 3 fold. Further, the EC50 in test [1] turned out to be 1.44 nM.

B4: His-FLAG-FRB E2032L (other)
chain: B1 chain with E37L
notes: The entry already carries the mutation and the tags; also called E2032L (FLAG tagged)
Take B4: the EC50 in test [1] came to 2.15 nM.

What is called EC50 is the midpoint of the concentration-response curve.
